According to US20200172618A1 (GENE SIGNAL INTERNATIONAL, published 2020):

T1: Strep-CD9P1-ECD (recombinant soluble human CD9P-1 extracellular domain with Strep tag) (human, UniProt Q9P2B2 22-832)
T1 construct: The limits 22-832 are stated for the recombinant extracellular domain made in CHO cells and used as immunogen; also called recombinant CD9P-1 extracellular domain; not shown: Strep tag; Residue numbers of the construct are 8 higher than those of CD9P-1
T1 sequence: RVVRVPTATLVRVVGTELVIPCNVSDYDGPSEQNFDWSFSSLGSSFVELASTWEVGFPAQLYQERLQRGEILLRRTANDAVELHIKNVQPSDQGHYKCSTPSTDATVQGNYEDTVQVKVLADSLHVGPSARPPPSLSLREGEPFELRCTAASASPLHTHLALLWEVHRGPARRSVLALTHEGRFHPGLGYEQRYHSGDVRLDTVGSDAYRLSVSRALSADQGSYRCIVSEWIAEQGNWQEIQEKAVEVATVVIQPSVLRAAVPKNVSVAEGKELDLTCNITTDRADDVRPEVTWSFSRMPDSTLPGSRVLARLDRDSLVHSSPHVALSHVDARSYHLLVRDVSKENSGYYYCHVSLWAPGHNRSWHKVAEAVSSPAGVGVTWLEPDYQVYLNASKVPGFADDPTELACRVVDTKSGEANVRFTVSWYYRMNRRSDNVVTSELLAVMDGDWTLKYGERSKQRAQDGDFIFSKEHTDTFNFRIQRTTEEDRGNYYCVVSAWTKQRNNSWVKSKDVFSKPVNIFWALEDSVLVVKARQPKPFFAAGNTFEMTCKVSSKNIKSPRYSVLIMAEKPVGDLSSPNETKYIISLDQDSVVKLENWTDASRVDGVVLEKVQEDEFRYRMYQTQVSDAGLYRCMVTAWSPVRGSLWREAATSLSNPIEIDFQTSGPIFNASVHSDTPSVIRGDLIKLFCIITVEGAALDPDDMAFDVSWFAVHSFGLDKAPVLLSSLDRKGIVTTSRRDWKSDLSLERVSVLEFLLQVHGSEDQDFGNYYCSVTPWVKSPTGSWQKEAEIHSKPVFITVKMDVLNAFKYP

B1: 9bF4 mAb (mouse anti-human CD9P-1 monoclonal antibody, hybridoma CNCM I-5213) (antibody, V domains shown)
VH: QVQLQQSGAELVKPGTSVKLSCKTSGYTFTSYWIQWIKQRPGQGLGWIGEIFPGTGTTSYHEKFKGKATLTIDTSSSTAYLQLSNLTSEDSAVYFCSRDFDVWGAGTTVTVSS
VL: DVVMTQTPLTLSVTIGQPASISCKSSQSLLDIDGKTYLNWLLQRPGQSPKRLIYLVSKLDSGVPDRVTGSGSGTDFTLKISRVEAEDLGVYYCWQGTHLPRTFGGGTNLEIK
notes: Mouse IgG from a hybridoma, purified on protein G; also called Mouse IgG 9bF4; IgG 9bF4
B2: 10bB1 mAb (mouse anti-human CD9P-1 monoclonal antibody, hybridoma CNCM I-5214) (antibody, V domains shown)
VH: QVQLQQSGAELVKPGTSVKLSCKTSGYTFTSYWIQWIKQRPGQGLGWIGEIFPGTGTTSYHEKFKGKATLTIDTSSSTAYLQLSNLTSEDSAVYFCSRDFDVWGAGTTVTVSS
VL: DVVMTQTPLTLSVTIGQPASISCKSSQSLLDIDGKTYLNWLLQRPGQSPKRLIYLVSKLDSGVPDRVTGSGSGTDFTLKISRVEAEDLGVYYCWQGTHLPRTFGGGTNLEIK
notes: Mouse IgG from a hybridoma; also called IgG 10bB1; 10bB11

Target: T1, Strep-CD9P1-ECD (recombinant soluble …)
Test: SPR; Strep-CD9P1-ECD coated on sensor chip, antibody flowed over
Text: Recombinant Strep-CD9P1-ECD was coated on sensor chip and several concentrations of the antibodies were flowed over the chip to obtain binding and dissociation kinetics.

Binder | Kd [nM] | koff [s⁻¹] | kon [M⁻¹ s⁻¹]
B1 | 90.9 | 0.00491 | 54100
B2 | 899 | 0.0118 | 13200
